# Measured values as given in paper PMC4078746 (Current biology : CB, 2010).
# B1: Robo2^R1I1+2 Ig1-5 fragment (Ig1+2 of Robo, Ig3-5 of Robo2) (domain or fragment)
# chain: not shown
# Biological target: the molecule itself
# Assay: SEC
protein,measurement,value
B1,stoichiometry N,2
